Experimental findings from patent US10913773B2, “Bicyclic peptidyl inhibitor of tumor necrosis factor-alpha” (Ohio State Innovation Foundation, priority 2016, dated 2021) are described below.

As usually defined, the Kd is the equilibrium constant for the complex coming apart.

The target of assay [1] is T1, Recombinant TNFα containing an N-terminal 13-aa ybbR tag (human, UniProt P01375 77-233, biotin at the ybbR tag in the ELISA assays).
T1 construct: Expressed in E. coli; Same construct used unlabelled (FA) and biotinylated on NeutrAvidin (ELISA); also called tumor necrosis factor-alpha; human TNFα; not shown: N-terminal 13-aa ybbR tag
T1 sequence (P01375 77-233): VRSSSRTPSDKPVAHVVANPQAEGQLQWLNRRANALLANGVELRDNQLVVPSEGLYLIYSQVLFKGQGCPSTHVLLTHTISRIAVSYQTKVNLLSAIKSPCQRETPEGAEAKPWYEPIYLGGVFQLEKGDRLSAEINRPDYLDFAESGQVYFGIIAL
Description: FA, FITC-peptide + TNFα titration. Here is the method: (§1) The FA values were measured on a Molecular Devices Spectramax M5 spectrofluorimeter, with excitation and emission wavelengths at 485 and 525 nm, respectively. Equilibrium dissociation constants (KD) were determined by plotting the FA values as a function of TNFα concentration and fitting the data to the following equation $$Y = \frac{\left(Amin + \left(Amax \times \frac{Q_b}{Q_f} - Amin\right)\left(\frac{(L+x+K_d) - \sqrt{((L+x+K_d)^2 - 4Lx)}}{2L}\right)\right)}{\left(1 + \left(\frac{Q_b}{Q_f} - 1\right)\left(\frac{(L+x+K_d) - \sqrt{((L+x+K_d)^2 - 4Lx)}}{2L}\right)\right)}$$
(§2) where Y is the measured anisotropy at a given TNFα concentration x; L is the bicyclic peptide concentration; Qb/Qf is the correction fact for dye-protein interaction; Amax is the maximum anisotropy when all the peptides are bound to TNFα, while $Amin$ is the minimum anisotropy. […] The FA values were plotted against the competitor peptide concentration to determine the IC$50$ values.

The target in assay [2] is T1, Recombinant TNFα containing an …. Put plainly: FA, FITC-peptide + TNFα titration. The procedure: as §1, §2
The source holds these as a separate data set.

Where two headings read alike, the source gives them in different places. Positions of bridges follow the written chain, without caps; N, C: chain ends. Non-standard residues stand in square brackets, D forms with d. Primed or numbered codes have the meaning given here. No end group written: not given here. *: point of attachment. FITC = O=C1OC2(c3ccc(O)cc3Oc3cc(O)ccc32)c2ccc(NC(=S)*)cc21; trimesoyl″ = benzene-1,3,5-tricarbonyl scaffold; FITC′ = fluorescein isothiocyanate, on Lys NZ; Phe(4-F) = N[C@@H](Cc1ccc(F)cc1)C(=O)O; Phg = N[C@H](C(=O)O)c1ccccc1; Nle = CCCC[C@H](N)C(=O)O; Orn = NCCC[C@H](N)C(=O)O; Abu = CC[C@H](N)C(=O)O; Dap = NC[C@H](N)C(=O)O

B1: C1-23 (peptide)
peptide: [Nle][Phe(4-F)][dS]KY[dF]G[dK]H[Dap]K(FITC′)-NH2
modifications: bridge (positions not given here) via trimesoyl″; not fully specified (N-terminus, bridges)
Take B1: the dissociation constant (Kd) in assay [1] came to 1.2 µM.
Regarding [Nle][Phe(4-F)][dS]KY[dQ]G[dK]H[Dap]K(FITC)-NH2 (linker N-4-10 via trimesoyl″) [C1-37], the Kd in assay [1] was 1.3 µM.
On to [Nle][Phe(4-F)][dS]KY[dH]G[dK]H[Dap]K(FITC)-NH2 (linker (positions not given here) via trimesoyl″; not fully specified (bridges)) [C1-39], for which the dissociation constant (Kd) in assay [1] was 1.7 µM.
Regarding VY[dA]KY[dF]G[dK]H[Dap]K(FITC)-NH2 (linker (positions not given here) via trimesoyl″; not fully specified (bridges)) [C1-4], the equilibrium dissociation constant (Kd) in assay [2] was 1.7 µM.

B2: C1-14 (peptide)
peptide: VY[dT]KY[dF]G[dK]H[Dap]K(FITC′)-NH2
modifications: linker (positions not given here) via trimesoyl″; not fully specified (N-terminus, bridges)
Turning to B2, the dissociation constant Kd in assay [2] turned out to be 2.9 µM.

B3: C1-13 (peptide)
peptide: VY[dS]KY[dF]G[dK]H[Dap]K(FITC′)-NH2
modifications: linker (positions not given here) via trimesoyl″; not fully specified (N-terminus, bridges)
In the case of B3, the Kd in assay [2] came out at 2.4 µM.

B4: C1-15 (peptide)
peptide: VY[dN]KY[dF]G[dK]H[Dap]K(FITC′)-NH2
modifications: linker (positions not given here) via trimesoyl″; not fully specified (N-terminus, bridges)
For the molecule B4, in assay [2], the equilibrium dissociation constant (Kd) is 3.2 µM.

B5: C1-16 (peptide)
peptide: LY[dN]KY[dF]G[dK]H[Dap]K(FITC′)-NH2
modifications: linker (positions not given here) via trimesoyl″; not fully specified (N-terminus, bridges)
On to B5, for which the equilibrium dissociation constant (Kd) in assay [2] was 2.7 µM.

B6: C1-2 (peptide)
peptide: AY[dA]KY[dF]G[dK]H[Dap]K(FITC′)-NH2
modifications: linker (positions not given here) via trimesoyl″; not fully specified (N-terminus, bridges)
With B6, the equilibrium dissociation constant (Kd) in assay [2] worked out at 1.8 µM.

B7: C1-17 (peptide)
peptide: FY[dN]KY[dF]G[dK]H[Dap]K(FITC′)-NH2
modifications: linker (positions not given here) via trimesoyl″; not fully specified (N-terminus, bridges)
As to B7, in assay [2], the dissociation constant Kd came to 2.2 µM.

B8: Anticachexin C1, Lys(FITC)-labelled (Table 2) (peptide)
peptide: [Phg]Y[dA]KY[dF]G[dK]H[Dap]K(FITC′)-NH2
modifications: linker (positions not given here) via trimesoyl″; not fully specified (N-terminus, bridges)
Consider B8, for which the equilibrium dissociation constant (Kd) in assay [2] turned out to be 1.4 µM.

B9: C1-12 (peptide)
peptide: [Nle]Y[dN]KY[dF]G[dK]H[Dap]K(FITC′)-NH2
modifications: linker (positions not given here) via trimesoyl″; not fully specified (N-terminus, bridges)
Consider B9, for which, in assay [2], the Kd was determined as 1.4 µM.
On to [Nle]Y[dS]KY[dQ]G[dK]H[Dap]K(FITC)-NH2 (linker N-4-10 via trimesoyl″) [C1-32], for which the Kd in assay [1] turned out to be 1.3 µM.
With [Nle]H[dS]KY[dF]G[dK]H[Dap]K(FITC)-NH2 (linker N-4-10 via trimesoyl″) [C1-26], the Kd in assay [1] was determined as 2.1 µM.
As to [Nle]L[dS]KY[dF]G[dK]H[Dap]K(FITC)-NH2 (linker N-4-10 via trimesoyl″) [C1-27], the Kd in assay [1] was 3.7 µM.
For [Abu]Y[dA]KY[dF]G[dK]H[Dap]K(FITC)-NH2 (linker N-4-10 via trimesoyl″) [C1-3], the Kd in assay [2] was determined as 2 µM.
On to [Nle]W[dS]KY[dH]G[dK]H[Dap]K(FITC)-NH2 (linker N-4-10 via trimesoyl″) [C1-41], for which the Kd in assay [1] came to 0.43 µM.
Turning to [Nle]Y[dS]KY[dY]G[dK]H[Dap]K(FITC)-NH2 (linker N-4-10 via trimesoyl″) [C1-29], in assay [1], the Kd amounted to 2 µM.
On the same count and under the same terms, the result for [Nle]Q[dS]KY[dF]G[dK]H[Dap]K(FITC)-NH2 (linker N-4-10 via trimesoyl″) [C1-28] reads 4.3 µM; that for [Nle]Y[dS]KY[dL]G[dK]H[Dap]K(FITC)-NH2 (linker N-4-10 via trimesoyl″) [C1-31], 2.5 µM.

B10: C1-22 (peptide)
peptide: [Nle]F[dS]KY[dF]G[dK]H[Dap]K(FITC′)-NH2
modifications: linker (positions not given here) via trimesoyl″; not fully specified (N-terminus, bridges)
Take B10: the dissociation constant (Kd) in assay [1] is 1.7 µM.

B11: C1-19 (peptide)
peptide: [Nle]YSKY[dF]G[dK]H[Dap]K(FITC′)-NH2
modifications: linker (positions not given here) via trimesoyl″; not fully specified (N-terminus, bridges)
notes: L-Ser at position 3
For B11, the equilibrium dissociation constant (Kd) in assay [2] was determined as 6.8 µM.

B12: Asn-Asn-Asn-Lys(FITC)-labeled anticachexin C1 (peptide)
peptide: [Phg]Y[dA]KY[dF]G[dK]H[Dap]NNNK(FITC′)-NH2
modifications: bridge (positions not given here) via trimesoyl″; not fully specified (N-terminus, bridges); also: feature: K4 labeled with FITC
notes: also called C1-NNNK(FITC); NNNK-tagged anticachexin C1
Consider B12, for which the dissociation constant Kd in assay [2] was 0.8 µM.

B13: C1-20 (peptide)
peptide: [Nle]Y[dS][Orn]Y[dF]G[dK]H[Dap]K(FITC′)-NH2
modifications: linker (positions not given here) via trimesoyl″; not fully specified (N-terminus, bridges)
With B13, the Kd in assay [2] was 3.5 µM.

B14: C1-21 (peptide)
peptide: [Nle]Y[dS][Dap]Y[dF]G[dK]H[Dap]K(FITC′)-NH2
modifications: linker (positions not given here) via trimesoyl″; not fully specified (N-terminus, bridges)
For B14, in assay [2], the Kd amounted to 5.9 µM.
